In publication PMC6609874, “MeABL5, an ABA Insensitive 5-Like Basic Leucine Zipper Transcription Factor, Positively Regulates MeCWINV3 in Cassava (Manihot esculenta Crantz)”:

Molecular target: T1, MeABL5 (Manihot esculenta Crantz, UniProt A0A411G151)
T1 sequence: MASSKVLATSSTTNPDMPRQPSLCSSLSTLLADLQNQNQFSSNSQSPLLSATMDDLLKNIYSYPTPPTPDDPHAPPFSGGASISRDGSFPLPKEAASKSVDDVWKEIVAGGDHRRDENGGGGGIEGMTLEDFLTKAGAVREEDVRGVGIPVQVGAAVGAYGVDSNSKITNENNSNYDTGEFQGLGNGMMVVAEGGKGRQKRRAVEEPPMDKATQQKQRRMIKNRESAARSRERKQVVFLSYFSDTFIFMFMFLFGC
Experiment: EMSA; 250 ng protein, 500 ng DNA; EMSA kit (Invitrogen), room temperature 30 min, 500 ng DNA, 0-250 ng protein, PAGE with SYBR Green/SYPRO Ruby stain; buffer, salt and pH not stated
Conditions: protein: recombinant; tags: MBP (pET28a-MBP) removed by TEV protease; Ni column purified; chain copies: 2; label: none (SYBR Green stain); annealed duplex

Binder | binding result
pMeCWINV3-WT 60 bp (dsDNA) DNA 1: ATCGTTGACATGTGAGTATTTGACGTATCCACGTGGGAAAGGGAAGAAAAACAACATTGA DNA 2: TCAATGTTGTTTTTCTTCCCTTTCCCACGTGGATACGTCAAATACTCACATGTCAACGAT | binds
pMeCWINV3-MT 54 bp (CACGTG deleted) (dsDNA) DNA 1: ATCGTTGACATGTGAGTATTTGACGTATCGGAAAGGGAAGAAAAACAACATTGA DNA 2: TCAATGTTGTTTTTCTTCCCTTTCCGATACGTCAAATACTCACATGTCAACGAT | no binding
